{"source": "paper PMC2603305", "about": "(Biochemistry, 2008)", "molecules": {"B1": {"name": "Kvβ2 (β-subunit of the voltage-gated potassium channel) (Rattus norvegicus) (protein)", "chain": "YRNLGKSGLRVSCLGLGTWVTFGGQITDEMAEHLMTLAYDNGINLFDTAEVYAAGKAEVVLGNIIKKKGWRRSSLVITTKIFWGGKAETERGLSRKHIIEGLKASLERLQLEYVDVVFANRPDPNTPMEETVRAMTHVINQGMAMYWGTSRWSSMEIMEAYSVARQFNLIPPICEQAEYHMFQREKVEVQLPELFHKIGVGAMTWSPLACGIVSGKYDSGIPPYSRASLKGYQWLKDKILSEEGRRQQAKLKELQAIAERLGCTLPQLAIAWCLRNEGVSSVLLGASNAEQLMENIGAIQVLPKLSSSIVHEIDSILGNKPYSKKDYRS"}}, "key": {"[1]": {"molecular_target": "T1, Kvβ2:Y90F (Rattus norvegicus, UniProt P62483, Y90F)", "T1 sequence (P62483 39-367 Y90F)": "B1 chain with Y52F", "test": "intrinsic fluorescence titration", "format": "binding"}, "[2]": {"molecular_target": "T2, Kvβ2 (β-subunit of the voltage-gated potassium channel) (Rattus norvegicus, UniProt P62483)", "T2 sequence (P62483 39-367)": "B1 chain", "test": "intrinsic fluorescence titration", "format": "binding"}, "[3]": {"molecular_target": "T2, Kvβ2 (β-subunit of the voltage-gated potassium channel)", "test": "NADPH oxidation, specific activity at […]", "format": "biochemical"}, "[4]": {"test_system": "O=C1C(=O)c2ccccc2-c2ccccc21", "test": "steady-state NADPH oxidation kinetics", "format": "biochemical, Rattus norvegicus"}, "[5]": {"molecular_target": "T2, Kvβ2 (β-subunit of the voltage-gated potassium channel)", "test": "NADPH oxidation, specific activity at […]", "format": "biochemical", "remark": "listed apart in the source"}, "[6]": {"substrate": "O=Cc1ccc([N+](=O)[O-])cc1", "test": "purified protein", "details": "NADPH active site, Tyr-90 acid-base catalyst; binds after NADPH"}, "[7]": {"substrate": "CC(=O)C=O", "test": "steady-state NADPH oxidation kinetics", "format": "biochemical, Rattus norvegicus", "details": "NADPH"}, "[8]": {"substrate": "CC(=O)c1ccc([N+](=O)[O-])cc1", "test": "steady-state NADPH oxidation kinetics", "format": "biochemical, Rattus norvegicus", "details": "NADPH active site, Tyr-90 acid-base catalyst"}}, "note": "Residue numbers refer to the chain shown, from its start. Where two headings read alike, the source gives them in different places."}
{"molecule": "NC(=O)C1=CN([C@@H]2O[C@H](COP(=O)(O)OP(=O)(O)OC[C@H]3O[C@@H](n4cnc5c(N)ncnc54)[C@H](OP(=O)(O)O)[C@@H]3O)[C@@H](O)[C@H]2O)C=CC1", "note": "[NADPH]", "values": [{"measurement": "Kd", "setting": "[1]", "value": "130 ± 11", "unit": "nM"}, {"measurement": "Kd", "setting": "[2]", "value": "200 ± 5", "unit": "nM"}]}
{"molecule": "CCCCC/C=C\\CC(=O)/C=C/C=C\\C/C=C\\CCCC(=O)O", "note": "[12-oxoETE]", "values": [{"measurement": "Specific activity", "setting": "[3]", "value": "0.044 ± 0.007", "unit": "min⁻¹"}]}
{"molecule": "Kvβ2 (β-subunit of the voltage-gated potassium channel) (Rattus norvegicus)", "values": [{"measurement": "Km", "setting": "[4]", "value": "240 ± 140", "unit": "µM"}]}
{"molecule": "CCCCC[C@H](O)/C=C/[C@H]1C(=O)C=C[C@@H]1C/C=C\\CCCC(=O)O", "note": "[PGJ2]", "values": [{"measurement": "Specific activity", "setting": "[5]", "value": "0.086 ± 0.019", "unit": "min⁻¹"}]}
{"molecule": "B1", "values": [{"measurement": "Km", "setting": "[6]", "value": "283 ± 31", "unit": "µM"}, {"measurement": "kcat", "setting": "[6]", "value": 0.00267, "unit": "s⁻¹"}, {"measurement": "kcat/Km", "setting": "[6]", "value": 9.83, "unit": "M⁻¹ s⁻¹"}, {"measurement": "Km", "setting": "[7]", "value": "12000 ± 1000", "unit": "µM"}, {"measurement": "Km", "setting": "[8]", "value": "209 ± 49", "unit": "µM"}, {"measurement": "kcat", "setting": "[8]", "value": "0.00153 ± 0.0001", "unit": "s⁻¹"}, {"measurement": "kcat/Km", "setting": "[8]", "value": "7.67 ± 1.5", "unit": "M⁻¹ s⁻¹"}]}
